In patent publication US20140178935A1 (AVEO PHARMACEUTICALS, published 2014):
Where a chain is given by its changes, count along the chain named.

T1: recombinant mouse-human-mouse (mhm) chimeric HGF protein containing the human V495-L585 HGF sequence disposed … (mouse-human-mouse chimera, UniProt Q08048 56-728)
T1 construct: CHO supernatant was used; also called mhm chimera (V495-L585); MHM chimera (495-585)
T1 chain: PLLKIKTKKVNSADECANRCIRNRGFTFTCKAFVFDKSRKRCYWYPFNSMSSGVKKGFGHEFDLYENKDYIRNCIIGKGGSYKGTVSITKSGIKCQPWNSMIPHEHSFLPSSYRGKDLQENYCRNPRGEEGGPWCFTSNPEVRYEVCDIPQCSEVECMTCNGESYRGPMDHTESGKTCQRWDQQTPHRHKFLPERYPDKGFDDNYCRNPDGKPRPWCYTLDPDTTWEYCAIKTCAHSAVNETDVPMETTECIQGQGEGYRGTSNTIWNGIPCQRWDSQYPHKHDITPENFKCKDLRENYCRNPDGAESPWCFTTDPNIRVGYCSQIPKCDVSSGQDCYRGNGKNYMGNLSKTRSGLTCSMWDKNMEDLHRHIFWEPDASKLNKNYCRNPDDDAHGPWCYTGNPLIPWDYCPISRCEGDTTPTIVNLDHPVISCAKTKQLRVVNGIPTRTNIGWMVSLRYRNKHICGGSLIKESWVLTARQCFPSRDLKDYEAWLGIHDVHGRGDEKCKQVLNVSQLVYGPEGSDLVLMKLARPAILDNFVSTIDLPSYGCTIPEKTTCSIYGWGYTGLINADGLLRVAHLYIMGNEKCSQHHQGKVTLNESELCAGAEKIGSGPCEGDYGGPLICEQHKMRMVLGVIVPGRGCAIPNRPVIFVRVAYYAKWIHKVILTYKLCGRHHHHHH

B1: anti-hHGF monoclonal antibody 1A3 (antibody, mouse IgG1, kappa, V domains shown)
VH: EVQLVESGGGLVQPGGSLKLSCAASEFTFSNYYMSWVRQTPEKRLQWVAYISPGGGSSYYPASVKGRFTISRDNAKNTLYLQMSSLKSEDTAMYYCARQGDGYYGDYAMDYWGQGTSVTVSS
VL: DIQMTQSPASLSVSVGETVTITCRASENIYSNLAWYQQKQGKSPQLLVYAATNLADGVPSRFSGSGSGTQFSLKINSLQSEDFGTYYCQHFWGTPYTFGGGTKLEIKR
notes: Murine IgG1 kappa from hybridoma
B2: anti-hHGF monoclonal antibody 3A12 (antibody, mouse IgG1, kappa, V domains shown)
VH: B1 VH with L20I, E26G, Y33F, Q46E, P53S, S58T, A62D, S84N, A97V
VL: B1 VL with S31I, Y49H, N53K, F71Y, T85S
notes: as for B1
B3: anti-hHGF monoclonal antibody 2F8 (antibody, mouse IgG1, kappa, V domains shown)
VH: QVQLKQSGAELVRPGTSVKMSCKASGYTFTTYYIHWVNQRPGQGLEWIGKIGPGSGSTYYNEMFKDKATLTVDTSSSTAYMQLSSLTSDDSAVYFCARRGLGRGFDYWGQGTTLTVSS
VL: DIVLTQSPASLAVSLGQRATISCKASQSVDYDGNSYINWYQQKPGQPPKVLIYVASNLESGIPARFSGSGSGTDFTLNIHPVEEEDAATYYCQQSIEDPPTFGAGTKLELKR
notes: as for B1
B4: anti-hHGF monoclonal antibody 3B6 (antibody, mouse IgG1, kappa, V domains shown)
VH: QVQLQQSGAELVRPGSSVKISCKASGYVFSSYWMNWVKQRPGQGLEWIGQIYPGDGDSNYNGNFKGKATLTADKSSSTAYMQLSSLTSEDSAVYFCASQLGLRENYFDYWGQGTTLTVSS
VL: DIKMTQSPSSMYASLGERVTITCKASQDIKSYLSWFQQKPGKSPKTLIYRVNRLVDGVPSRFSGSGSGQDSSLTITSLENEDMGIYYCLQYDEFPFTFGGGTKLEIKR
notes: as for B1
B5: anti-hHGF monoclonal antibody 3D11 (antibody, mouse IgG1, kappa, V domains shown)
VH: QVQLKESGPGLVAPSQSLSITCTVSGFSLTSYSLHWVRQPPGKGLEWLGVIWAGGNTNYNSSLMSRLTIRKDNSKSQVFLKMNSLQTDDTAMYYCARERFAYWGQGTLVTVSA
VL: QIVLTQSPAIMSAYPGEKVTMTCSASSSVSYMHWYQQKSGTSPKRWIYDTSKLASGVPARFSGSGSGTSYSLTISSMEAEDAATYYCQQWSSNPLTFGAGTKLELKR
notes: as for B1

What follows are binders tested against T2, recombinant human HGF (R&D Systems, Catalog No. 294-HGN-025) (human, UniProt P14210 32-728) (assay: cell-based or functional assay).
T2 sequence (P14210 32-728 limits assumed): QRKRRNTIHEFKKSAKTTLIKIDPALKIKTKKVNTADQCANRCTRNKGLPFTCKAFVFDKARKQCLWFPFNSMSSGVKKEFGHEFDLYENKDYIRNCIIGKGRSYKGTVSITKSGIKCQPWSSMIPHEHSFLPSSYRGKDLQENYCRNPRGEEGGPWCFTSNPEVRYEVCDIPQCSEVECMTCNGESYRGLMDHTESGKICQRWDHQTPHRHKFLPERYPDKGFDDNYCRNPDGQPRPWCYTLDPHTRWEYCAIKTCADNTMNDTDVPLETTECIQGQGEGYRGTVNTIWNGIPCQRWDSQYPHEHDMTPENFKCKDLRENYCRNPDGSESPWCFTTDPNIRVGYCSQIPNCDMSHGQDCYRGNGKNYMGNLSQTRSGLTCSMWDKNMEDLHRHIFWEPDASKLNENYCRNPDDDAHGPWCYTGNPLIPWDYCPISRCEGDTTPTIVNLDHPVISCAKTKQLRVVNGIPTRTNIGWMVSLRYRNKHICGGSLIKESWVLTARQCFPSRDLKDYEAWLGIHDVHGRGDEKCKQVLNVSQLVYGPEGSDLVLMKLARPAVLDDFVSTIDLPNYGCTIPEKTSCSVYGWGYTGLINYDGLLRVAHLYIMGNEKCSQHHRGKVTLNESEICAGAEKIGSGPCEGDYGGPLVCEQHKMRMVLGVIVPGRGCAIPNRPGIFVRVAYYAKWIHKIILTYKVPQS
In the case of B1, the “IC50, neutralization of HGF stimulated BrdU incorporation in 4 MBr-5 cells” value (shortened to “IC50, neutralization”) is reported as 4.69 nM. With B2 the “IC50, neutralization” value was 30.3 nM. With B3 the “IC50, neutralization” value was 19.2 nM. In the case of B4, the “IC50, neutralization” value is reported as 36.1 nM. For B5, the “IC50, neutralization” value was 51.1 nM.

Biological target: T2, recombinant human HGF (R&D Systems, …)
Experiment: cell-based or functional assay
Remark: another data set of the same source
With B1 the “EC50, inhibition of HGF-stimulated c-Met phosphorylation in PC-3 cells, Average of Two Trials” value (“EC50, inhibition” below) was 0.684 nM. For B2, the “EC50, inhibition” value was 2 nM. In the case of B3, the “EC50, inhibition” value is reported as 1.39 nM. With B4 the “EC50, inhibition” value was 1.01 nM. B5 was tested, and the “EC50, inhibition” value was 2.28 nM.

These binders were tested against T3, recombinant mouse HGF (R&D Systems) (mouse, UniProt Q08048 33-728) (assay: SPR, antibody immobilized, HGF protein injected, 25 C).
T3 construct: Bought protein, construct not described; also called rmHGF (R&D Systems); murine HGF
T3 sequence (Q08048 33-728 limits assumed): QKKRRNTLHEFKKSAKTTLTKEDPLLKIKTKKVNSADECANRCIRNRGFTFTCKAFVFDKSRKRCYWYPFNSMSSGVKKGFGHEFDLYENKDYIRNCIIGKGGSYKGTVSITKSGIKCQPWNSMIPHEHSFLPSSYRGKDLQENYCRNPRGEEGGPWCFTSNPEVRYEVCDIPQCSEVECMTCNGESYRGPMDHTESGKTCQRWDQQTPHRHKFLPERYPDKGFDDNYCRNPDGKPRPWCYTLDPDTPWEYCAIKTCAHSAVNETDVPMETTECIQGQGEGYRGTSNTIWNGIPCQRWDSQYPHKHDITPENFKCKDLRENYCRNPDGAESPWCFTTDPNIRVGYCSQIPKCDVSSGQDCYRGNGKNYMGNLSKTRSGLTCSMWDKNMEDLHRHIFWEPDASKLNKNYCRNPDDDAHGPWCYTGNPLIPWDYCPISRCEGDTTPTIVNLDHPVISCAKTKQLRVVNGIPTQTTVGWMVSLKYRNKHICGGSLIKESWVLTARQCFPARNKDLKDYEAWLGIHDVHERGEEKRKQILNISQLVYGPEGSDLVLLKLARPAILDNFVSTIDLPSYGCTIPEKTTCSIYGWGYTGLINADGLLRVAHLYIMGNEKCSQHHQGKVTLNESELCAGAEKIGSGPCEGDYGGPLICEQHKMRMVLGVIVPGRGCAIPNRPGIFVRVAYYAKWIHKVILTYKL
Protocol: (§1) Each antibody was immobilized on a carboxymethylated dextran CM5 sensor chip (BIAcore, Catalog No. BR-1006-68) by amine coupling (BIAcore, Catalog No. BR-1000-50) using a standard coupling protocol according to manufacturer's instructions.
(§2) Analyses were performed at 25° C. using PBS (GIBCO, Catalog No. 14040-133) containing 0.05% surfactant P20 (BIAcore, Catalog No. R-1000-54), 2 mg/mL BSA (EMD, Catalog No. 2930) and 10 mg/mL CM-Dextran Sodium salt (Fluka, Catalog No. 86524) as running buffer. […] The resulting binding was determined as resonance units (RU) over baseline 30 seconds after the end of injection. […] Non-specific binding was monitored by comparing binding to a control surface where mouse IgG (Rockland, Catalog No. 010-0102) was immobilized using the same amine coupling procedure.
B1: no binding. B2: no binding. B3: binds. B4: no binding. B5: no binding.

Biological target: T1, recombinant mouse-human-mouse (mhm) …
Experiment: as above
Protocol: as §1, §2
B1: no binding. B2: no binding. B3: no binding. B4: no binding. B5: no binding.

These binders were tested against hHGF-Fc G555E (recombinant hHGF protein containing a glycine to glutamate substitution at position 555) (human) in the same assay as above.
Sequence of hHGF-Fc G555E (recombinant hHGF protein containing a glycine to glutamate substitution at position 555) (human) (chain, as listed by the source G555E G555E limits assumed): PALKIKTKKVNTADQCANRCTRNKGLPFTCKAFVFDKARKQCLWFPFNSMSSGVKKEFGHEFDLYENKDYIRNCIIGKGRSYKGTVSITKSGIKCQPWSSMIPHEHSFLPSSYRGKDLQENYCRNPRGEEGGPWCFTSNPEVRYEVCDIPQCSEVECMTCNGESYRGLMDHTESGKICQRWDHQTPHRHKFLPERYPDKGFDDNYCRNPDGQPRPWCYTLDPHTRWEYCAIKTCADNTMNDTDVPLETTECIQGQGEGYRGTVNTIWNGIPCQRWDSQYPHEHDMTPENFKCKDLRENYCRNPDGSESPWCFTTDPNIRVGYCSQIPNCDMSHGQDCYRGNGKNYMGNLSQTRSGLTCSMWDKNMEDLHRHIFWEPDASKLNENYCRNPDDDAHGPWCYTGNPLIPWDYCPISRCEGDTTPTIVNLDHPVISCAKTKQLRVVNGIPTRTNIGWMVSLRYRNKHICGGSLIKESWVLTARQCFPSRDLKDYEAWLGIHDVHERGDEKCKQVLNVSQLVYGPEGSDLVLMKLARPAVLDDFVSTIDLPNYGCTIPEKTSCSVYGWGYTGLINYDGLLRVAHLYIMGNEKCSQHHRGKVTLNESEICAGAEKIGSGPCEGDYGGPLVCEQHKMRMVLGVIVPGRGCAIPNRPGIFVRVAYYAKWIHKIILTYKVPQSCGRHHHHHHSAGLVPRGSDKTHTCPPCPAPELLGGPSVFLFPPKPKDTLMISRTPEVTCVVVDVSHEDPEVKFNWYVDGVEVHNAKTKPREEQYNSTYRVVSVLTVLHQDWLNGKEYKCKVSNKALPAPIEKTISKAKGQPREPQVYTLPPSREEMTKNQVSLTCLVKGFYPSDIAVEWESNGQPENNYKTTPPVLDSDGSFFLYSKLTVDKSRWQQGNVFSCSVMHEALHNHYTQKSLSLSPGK
Protocol: as §1, §2
B1: binds. B2: binds. B3: binds. B4: binds. B5: binds.

Each binder was assayed against hHGF-Fc C561R (recombinant hHGF protein containing a cysteine to arginine substitution at position 561) (human) in the same assay as above.
Sequence of hHGF-Fc C561R (recombinant hHGF protein containing a cysteine to arginine substitution at position 561) (human) (chain, as listed by the source C561R C561R limits assumed): as the sequence (chain, as listed by the source G555E G555E limits assumed) above, with E501G, C507R counted along it
Protocol: as §1, §2
B1: binds. B2: binds. B3: binds. B4: binds. B5: binds.

These binders were tested against T2, recombinant human HGF (R&D Systems, …) (assay: SPR, antibody captured by anti-mouse Ig, HGF injected, 25 C).
Protocol: Rabbit anti-mouse immunoglobulins (BIAcore, Catalog No. BR-1005-14) were immobilized on carboxymethylated dextran CM5 sensor chips (BIAcore, Catalog No. BR-1006-68) by amine coupling (BIAcore, Catalog No. BR-1000-50) using a standard coupling protocol according to manufacturer's instructions. The analyses were performed at 25° C. using PBS (GIBCO, Catalog No. 14040-133) containing 0.05% surfactant P20 (BIAcore, Catalog No. BR-1000-54), 2 mg/mL BSA (EMD, Catalog No. 2930), and 10 mg/mL CM-Dextran Sodium salt (Fluka, Catalog No. 86524) as running buffer.
The antibodies were captured in an individual flow cell at a flow rate of 10 μL/min. Injection time was variable for each antibody to yield approximately 20 RU of antibody captured for each cycle. […] The dissociation phase was monitored for 15 or 90 minutes, depending on concentration. The surface then was regenerated with 10 mM Glycine-HCl, pH 1.7 (BIAcore, Catalog No. BR-1003-54) injected for 3 minutes at a flow rate of 60 μL/min before another cycle was initiated.
Kinetic parameters were determined using the kinetic function of the BIAevalutation software with reference subtraction.
B1 showed a Kd of 0.0301 nM, a koff of 5.2e-05 s⁻¹ and a kon of 1.7e+06 M⁻¹ s⁻¹. In the case of B2, the Kd is reported as 0.103 nM, the koff is reported as 0.00016 s⁻¹ and the kon is reported as 1.6e+06 M⁻¹ s⁻¹. For B4, the Kd was 0.017 nM, the koff was 3.9e-05 s⁻¹ and the kon was 2e+06 M⁻¹ s⁻¹.

What follows are binders tested against T2, recombinant human HGF (R&D Systems, …) (assay: competition ELISA (DELFIA): antibody inhibits c-Met binding to plate-coated HGF).
Protocol: The plates then were blocked with 200 μL of 5% non-fat dry milk in PBS for 1 hour at room temperature. […] 100 μL of sample per well was transferred to the assay plate and incubated overnight at 4° C.
The resulting plates then were washed three times with PBS-0.1% Tween 20, and incubated for 1 hour at room temperature with Eu-labeled Streptavidin (Wallac, Catalog No. 1244-360) diluted 1:1000 in DELFIA assay buffer (Wallac, Catalog No. 4002-0010). The resulting plates were washed 3 times with DELFIA wash solution (Wallac, Catalog No. 4010-0010) and incubated with 100 μL/well DELFIA enhancement solution (Wallac #4001-0010) for 15 minutes at room temperature with agitation.
The plates were read on Victor³V instrument (Perkin Elmer) using the Europium method.
In the case of B1, the IC50 is reported as 5.65 nM. With B2 the IC50 was 5.26 nM. With B3 the IC50 was 5.36 nM. B5 gave an IC50 of 5.66 nM.
